Measurements published in patent US20260258117A1 (ACADEMISCH ZIEKENHUIS LEIDEN H O D N LUMC, published 2026).

Legend:
[1] = molecular target: T1, C4b-binding protein (human, UniProt P04003 49-597; P20851 18-252); test: bispecific ELISA
T1 construct: also called C4BP
T1 sequence (looked up) 1: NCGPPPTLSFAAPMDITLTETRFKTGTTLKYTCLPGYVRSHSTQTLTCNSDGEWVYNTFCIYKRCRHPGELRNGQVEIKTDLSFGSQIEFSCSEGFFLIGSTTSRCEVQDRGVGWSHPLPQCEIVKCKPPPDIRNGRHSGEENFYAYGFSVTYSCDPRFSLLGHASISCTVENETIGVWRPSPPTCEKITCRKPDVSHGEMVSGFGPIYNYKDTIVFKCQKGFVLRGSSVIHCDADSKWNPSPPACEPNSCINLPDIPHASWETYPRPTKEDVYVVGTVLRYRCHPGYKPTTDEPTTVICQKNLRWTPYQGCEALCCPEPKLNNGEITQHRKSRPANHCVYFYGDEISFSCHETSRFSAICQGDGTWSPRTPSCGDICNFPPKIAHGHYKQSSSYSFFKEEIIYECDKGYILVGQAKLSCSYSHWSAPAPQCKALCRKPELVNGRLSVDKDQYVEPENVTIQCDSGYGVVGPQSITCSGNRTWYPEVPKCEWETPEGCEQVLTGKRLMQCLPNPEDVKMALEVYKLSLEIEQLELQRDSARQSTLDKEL
T1 sequence (looked up) 2: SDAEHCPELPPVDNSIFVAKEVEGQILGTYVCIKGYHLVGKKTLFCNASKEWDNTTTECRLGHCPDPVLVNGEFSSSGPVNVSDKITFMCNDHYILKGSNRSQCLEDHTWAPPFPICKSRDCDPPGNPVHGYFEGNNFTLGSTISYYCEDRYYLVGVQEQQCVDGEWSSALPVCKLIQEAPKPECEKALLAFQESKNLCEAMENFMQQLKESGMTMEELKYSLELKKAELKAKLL
Description: (§1) BsAbs were tested for binding to both antigens in a bispecific ELISA. MaxiSorp plates (Thermo Scientific, Nunc, 430341) were coated with 50 μL/well BSA-DNP (10 μg/mL, Biosearch Technologies, D-5050-10, conjugation ration 13) in coating buffer (0.1 M Na₂CO₃/NaHCO₃PH 9.6) for 1 hour at 37° C. After every incubation, plates were washed three times with PBS/0.05% Tween 20. Plates were blocked with 100 μL/well PBS/1% BSA for 1 hour at 37° C. After washing, plates were incubated with 50 μL/well (bs) Abs diluted in PBS/0.05% Tween 20/1% BSA (PTB buffer) for 1 hour at 37° C. Next, 1 μg/mL FH (CompTech, A137) or C4BP (CompTech, A109) diluted in PTB buffer was added. FH was detected using goat anti-human FH (Quidel, A312) and HRP-labeled rabbit anti-goat Ig (Dako, P0449), and C4BP was detected using rabbit anti-human C4BP (kind gift from Anna M. Blom, Malmö, Sweden) and HRP-labeled goat anti-rabbit Ig (Dako, P0448), all diluted in PTB buffer. Plates were developed by incubating with 50 μL/well ABTS (Merck, A1888-5G) containing 1:2000 diluted H₂O₂ (Merck, 1072090250), and read at 415 nm using a microplate reader (BIO-RAD iMark). It was confirmed by ELISA that the bsAbs can bind to a specific target (e.g., DNP as a model antigen) as well as FH or C4BP, whereas the parental monospecific antibodies cannot (FIG. 1A).

[2] = molecular target: T2, Complement Factor H protein (human, UniProt P08603 19-1231); test: bispecific ELISA: BSA-DNP coat, antibody, then FH, FH detected
T2 construct: Plasma protein, bought purified or present in normal human serum; also called FH; CFH
Description: as §1

[3] = molecular target: T1, C4b-binding protein; test: bispecific ELISA: BSA-DNP coat, antibody, then C4BP, C4BP detected
Description: as §1

[4] = molecular target: T2, Complement Factor H protein; test: bispecific ELISA and complement activation assay on biotinylated BSA-DNP, FH detected

T2 sequence (P08603 19-1231 limits assumed): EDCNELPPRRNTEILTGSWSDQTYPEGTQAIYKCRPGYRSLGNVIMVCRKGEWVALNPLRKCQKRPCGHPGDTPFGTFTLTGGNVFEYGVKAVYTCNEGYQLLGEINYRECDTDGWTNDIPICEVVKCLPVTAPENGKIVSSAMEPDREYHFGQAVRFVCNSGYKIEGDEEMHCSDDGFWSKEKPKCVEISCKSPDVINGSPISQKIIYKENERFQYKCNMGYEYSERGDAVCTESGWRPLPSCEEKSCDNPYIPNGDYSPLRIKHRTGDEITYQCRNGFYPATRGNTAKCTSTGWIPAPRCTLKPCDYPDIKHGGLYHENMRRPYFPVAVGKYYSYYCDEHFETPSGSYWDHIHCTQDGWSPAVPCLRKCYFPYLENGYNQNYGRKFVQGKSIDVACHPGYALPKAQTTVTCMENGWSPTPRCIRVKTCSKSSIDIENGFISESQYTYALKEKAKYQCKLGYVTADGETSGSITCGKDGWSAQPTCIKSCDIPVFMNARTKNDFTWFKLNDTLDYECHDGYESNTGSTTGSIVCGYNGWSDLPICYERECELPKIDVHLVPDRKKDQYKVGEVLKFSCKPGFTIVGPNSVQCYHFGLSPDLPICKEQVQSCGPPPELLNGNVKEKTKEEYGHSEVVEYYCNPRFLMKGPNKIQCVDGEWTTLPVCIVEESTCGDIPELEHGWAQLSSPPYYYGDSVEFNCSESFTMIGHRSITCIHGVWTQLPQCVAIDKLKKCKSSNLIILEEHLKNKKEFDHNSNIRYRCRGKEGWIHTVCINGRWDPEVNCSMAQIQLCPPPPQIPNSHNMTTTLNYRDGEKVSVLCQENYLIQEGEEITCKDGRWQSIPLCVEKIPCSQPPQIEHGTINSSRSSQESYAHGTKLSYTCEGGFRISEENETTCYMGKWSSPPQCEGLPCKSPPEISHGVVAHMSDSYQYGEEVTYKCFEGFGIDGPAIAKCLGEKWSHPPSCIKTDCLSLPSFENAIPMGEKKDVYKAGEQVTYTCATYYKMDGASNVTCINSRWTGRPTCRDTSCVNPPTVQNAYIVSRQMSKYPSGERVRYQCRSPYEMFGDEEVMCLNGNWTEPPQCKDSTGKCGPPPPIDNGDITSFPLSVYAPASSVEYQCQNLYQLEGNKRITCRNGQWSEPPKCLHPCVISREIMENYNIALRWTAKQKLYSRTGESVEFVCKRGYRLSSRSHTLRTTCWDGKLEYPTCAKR

B1: Anti-C4BP F405L LALAPG, Anti-DNP K409R LALAPG (bispecific antibody, human IgG1, kappa, L234A L235A)
heavy 1: EVQLVESGGGLVKPGGSLKLSCAVSGFIFSDYYMYWVRQTPEKRLEWVATISDGGVYTYYPDSMKGRFTISRDNAKNNLYLQMSSLKSEDTAMYYCVRGDYYGNSLDYWGQGTSVTVSSASTKGPSVFPLAPSSKSTSGGTAALGCLVKDYFPEPVTVSWNSGALTSGVHTFPAVLQSSGLYSLSSVVTVPSSSLGTQTYICNVNHKPSNTKVDKRVEPKSCDKTHTCPPCPAPEAAGGPSVFLFPPKPKDTLMISRTPEVTCVVVDVSHEDPEVKFNWYVDGVEVHNAKTKPREEQYNSTYRVVSVLTVLHQDWLNGKEYKCKVSNKALGAPIEKTISKAKGQPREPQVYTLPPSREEMTKNQVSLTCLVKGFYPSDIAVEWESNGQPENNYKTTPPVLDSDGSFLLYSKLTVDKSRWQQGNVFSCSVMHEALHNHYTQKSLSLSPGK
light 1: DVVMTQTPLTLSITIGQPASISCKSSQSLLDGDGKTYLNWLLQRPGQSPKRLIYLVSKLDSGVPDRFTGSGSGTDFTLKISRVEAEDLGVYYCCQGTHFPWTFGRGTKLEIKRTVAAPSVFIFPPSDEQLKSGTASVVCLLNNFYPREAKVQWKVDNALQSGNSQESVTEQDSKDSTYSLSSTLTLSKADYEKHKVYACEVTHQGLSSPVTKSFNRGEC
heavy 2: DVRLQESGPGLVKPSQSLSLTCSVTGYSITNSYYWNWIRQFPGNKLEWMVYIGYDGSNNYNPSLKNRISITRDTSKNQFFLKLNSVTTEDTATYYCARATYYGNYRGFAYWGQGTLVTVSAASTKGPSVFPLAPSSKSTSGGTAALGCLVKDYFPEPVTVSWNSGALTSGVHTFPAVLQSSGLYSLSSVVTVPSSSLGTQTYICNVNHKPSNTKVDKRVEPKSCDKTHTCPPCPAPEAAGGPSVFLFPPKPKDTLMISRTPEVTCVVVDVSHEDPEVKFNWYVDGVEVHNAKTKPREEQYNSTYRVVSVLTVLHQDWLNGKEYKCKVSNKALGAPIEKTISKAKGQPREPQVYTLPPSREEMTKNQVSLTCLVKGFYPSDIAVEWESNGQPENNYKTTPPVLDSDGSFFLYSRLTVDKSRWQQGNVFSCSVMHEALHNHYTQKSLSLSPGK
light 2: DIRMTQTTSSLSASLGDRVTISCRASQDISNYLNWYQQKPDGTVKLLIYYTSRLHSGVPSRFSGSGSGTDYSLTISNLEQEDIATYFCQQGNTLPWTFGGGTKLEIKRTVAAPSVFIFPPSDEQLKSGTASVVCLLNNFYPREAKVQWKVDNALQSGNSQESVTEQDSKDSTYSLSSTLTLSKADYEKHKVYACEVTHQGLSSPVTKSFNRGEC
notes: Made by controlled Fab-arm exchange; also called anti-C4BP x anti-DNP
[1]
  binding result: binds

B2: Anti-DNP K409R LALAPG (antibody, human IgG1, kappa, L234A L235A, V domains shown)
VH: DVRLQESGPGLVKPSQSLSLTCSVTGYSITNSYYWNWIRQFPGNKLEWMVYIGYDGSNNYNPSLKNRISITRDTSKNQFFLKLNSVTTEDTATYYCARATYYGNYRGFAYWGQGTLVTVSA
VL: DIRMTQTTSSLSASLGDRVTISCRASQDISNYLNWYQQKPDGTVKLLIYYTSRLHSGVPSRFSGSGSGTDYSLTISNLEQEDIATYFCQQGNTLPWTFGGGTKLEIKR
notes: also called anti-DNP parental Ab; parental monospecific antibody
[2]
  binding result: no binding (tested: 1 µg/mL FH)
[3]
  binding result: no binding (tested: 1 µg/mL C4BP)

B3: Anti-FH F405L LALAPG, Anti-biotin K409R LALAPG (bispecific antibody, human IgG1, kappa, L234A L235A)
heavy 1: EVQLQQSGPELVKPGASVKISCKASGYSFTGYFIHWVKQSHVKSLEWFGRINPYNGATDYNQNFKDKAILTIDESSSTAYMEIHSLTSDDSAVYYCARGLFLDYWGQGTTLTVSSASTKGPSVFPLAPSSKSTSGGTAALGCLVKDYFPEPVTVSWNSGALTSGVHTFPAVLQSSGLYSLSSVVTVPSSSLGTQTYICNVNHKPSNTKVDKRVEPKSCDKTHTCPPCPAPEAAGGPSVFLFPPKPKDTLMISRTPEVTCVVVDVSHEDPEVKFNWYVDGVEVHNAKTKPREEQYNSTYRVVSVLTVLHQDWLNGKEYKCKVSNKALGAPIEKTISKAKGQPREPQVYTLPPSREEMTKNQVSLTCLVKGFYPSDIAVEWESNGQPENNYKTTPPVLDSDGSFLLYSKLTVDKSRWQQGNVFSCSVMHEALHNHYTQKSLSLSPGK
light 1: DILMTQSPSSMSVSLGDTVSITCHASQGITSNIGWLQQKPGKSFKGLIYHGTNLEDGVPSRFSGSGSGADYSLTISSLESEDFADYYCVQYAQFPWTFGGGTKLEIKRTVAAPSVFIFPPSDEQLKSGTASVVCLLNNFYPREAKVQWKVDNALQSGNSQESVTEQDSKDSTYSLSSTLTLSKADYEKHKVYACEVTHQGLSSPVTKSFNRGEC
heavy 2: QVKLQESGPGLVAPSQSLSITCTVSGFSLTAYGVDWVRQPPGKGLEWLGVIWGGGRTNYNSGLMSRLSIRKDNSKSQVFLTMNSLQTDDTAKYYCVKHTNWDGGFAYWGQGTTVTVSSASTKGPSVFPLAPSSKSTSGGTAALGCLVKDYFPEPVTVSWNSGALTSGVHTFPAVLQSSGLYSLSSVVTVPSSSLGTQTYICNVNHKPSNTKVDKRVEPKSCDKTHTCPPCPAPEAAGGPSVFLFPPKPKDTLMISRTPEVTCVVVDVSHEDPEVKFNWYVDGVEVHNAKTKPREEQYNSTYRVVSVLTVLHQDWLNGKEYKCKVSNKALGAPIEKTISKAKGQPREPQVYTLPPSREEMTKNQVSLTCLVKGFYPSDIAVEWESNGQPENNYKTTPPVLDSDGSFFLYSRLTVDKSRWQQGNVFSCSVMHEALHNHYTQKSLSLSPGK
light 2: DVVMTQSPLSLPVSLGDQASISCRSGQGLVYSNGDTYLHWYLQKPGQSPKLLIYKVSNRFSGVPDRFSGSGSGTDFTLKISRVEAEDLGVYFCSQSTHFPFTFGSGTKLEIKRTVAAPSVFIFPPSDEQLKSGTASVVCLLNNFYPREAKVQWKVDNALQSGNSQESVTEQDSKDSTYSLSSTLTLSKADYEKHKVYACEVTHQGLSSPVTKSFNRGEC
notes: Made by controlled Fab-arm exchange; also called anti-FH x anti-biotin
[4]
  binding result: binds
